Assay results: US20080148430
Positions count from the first letter of the chain named.

B1: AtMPK6 (protein)
chain: MDGGSGQPAADTEMTEAPGGFPAAAPSPQMPGIENIPATLSHGGRFIQYNIFGNIFEVTAKYKPPIMPIGKGAYGIVCSAMNSETNESVAIKKIANAFDNKIDAKRTLREIKLLRHMDHENIVAIRDIIPPPLRNAFNDVYIAYELMDTDLHQIIRSNQALSEEHCQYFLYQILRGLKYIHSANVLHRDLKPSNLLLNANCDLKICDFGLARVTSESDFMTEYVVTRWYRAPELLLNSSDYTAAIDVWSVGCIFMELMDRKPLFPGRDHVHQLRLLMELIGTPSEEELEFLNENAKRYIRQLPPYPRQSITDKFPTVHPLAIDLIEKMLTFDPRRRITVLDALAHPYLNSLHDISDEPECTIPFNFDFENHALSEEQMKELIYREALAFNPEYQQ
B2: AtMPK3 (protein)
chain: MNTGGGQYTDFPAVETHGGQFISYDIFGSLFEITSKYRPPIIPIGRGAYGIVCSVLDTETNELVAMKKIANAFDNHMDAKRTLREIKLLRHLDHENIIAIRDVVPPPLRRQFSDVYISTELMDTDLHQIIRSNQSLSEEHCQYFLYQLLRGLKYIHSANIIHRDLKPSNLLLNANCDLKICDFGLARPTSENDFMTEYVVTRWYRAPELLLNSSDYTAAIDVWSVGCIFMELMNRKPLFPGKDHVHQMRLLTELLGTPTESDLGFTHNEDAKRYIRQLPNFPRQPLAKLFSHVNPMAIDLVDRMLTFDPNRRITVEQALNHQYLAKLHDPNDEPICQKPFSFEFEQQPLDEEQIKEMIYQEAIALNPTYG

How the values were obtained:
[1] = target: T1, AtPhos32 (At5g54430)
T1 chain: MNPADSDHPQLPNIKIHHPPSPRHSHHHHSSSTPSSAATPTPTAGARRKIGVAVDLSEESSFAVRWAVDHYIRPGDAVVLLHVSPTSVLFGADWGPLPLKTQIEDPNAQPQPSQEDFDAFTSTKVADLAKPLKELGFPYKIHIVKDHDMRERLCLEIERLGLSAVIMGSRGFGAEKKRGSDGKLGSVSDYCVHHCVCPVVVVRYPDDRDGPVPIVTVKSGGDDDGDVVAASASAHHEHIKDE

[2] = target: T2, AtPhos34 (At4g27320)
T2 chain: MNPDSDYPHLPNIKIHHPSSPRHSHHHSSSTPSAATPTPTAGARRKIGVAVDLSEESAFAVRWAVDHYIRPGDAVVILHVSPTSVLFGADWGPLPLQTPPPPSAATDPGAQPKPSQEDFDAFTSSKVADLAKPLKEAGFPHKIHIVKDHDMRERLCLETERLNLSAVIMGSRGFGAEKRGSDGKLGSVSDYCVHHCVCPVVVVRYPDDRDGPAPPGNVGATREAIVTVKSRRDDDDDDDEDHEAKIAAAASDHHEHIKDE

[3] = target: T3, GST fusion containing the first 46 amino acids of Phos32
T3 chain: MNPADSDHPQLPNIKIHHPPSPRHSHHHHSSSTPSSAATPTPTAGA

[4] = target: T4, Phos32 with serine S21 mutated to alanine
T4 chain: T1 chain with S21A

[5] = target: T5, Phos32 with serine S21 mutated to aspartic acid
T5 chain: T1 chain with S21D

[6] = target: T6, Myelin Basic Protein (MBP) Bovine P02687
T6 chain: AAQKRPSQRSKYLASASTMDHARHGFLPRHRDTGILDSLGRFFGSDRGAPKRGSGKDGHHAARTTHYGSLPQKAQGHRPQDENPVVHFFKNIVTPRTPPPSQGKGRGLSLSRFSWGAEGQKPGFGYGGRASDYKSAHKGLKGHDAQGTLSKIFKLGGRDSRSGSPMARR

Row | Protein | in-solution kinase assays with 32P-gammaATP [1] | in-solution kinase assays with 32P-gammaATP [2] | in vitro kinase assay [3] | in vitro kinase assay [4] | in vitro kinase assay [5] | level of phosphorylation in an in vitro kinase assay [1] | level of phosphorylation in an in vitro kinase assay [6]
1 | B1 | we found that these proteins are excellent MAP kinase substrates | we found that these proteins are excellent MAP kinase substrates | the first 46 amino acids of Phos32 protein are sufficient for MAP kinase recognition and phosphorylation | mutation of this residue to alanine or aspartic acid abolishes phosphorylation by MAPKs | mutation of this residue to alanine or aspartic acid abolishes phosphorylation by MAPKs | – | –
2 | B2 | we found that these proteins are excellent MAP kinase substrates | we found that these proteins are excellent MAP kinase substrates | the first 46 amino acids of Phos32 protein are sufficient for MAP kinase recognition and phosphorylation | mutation of this residue to alanine or aspartic acid abolishes phosphorylation by MAPKs | mutation of this residue to alanine or aspartic acid abolishes phosphorylation by MAPKs | Phos32 is at least as good if not a better substrate than MBP for this MAP Kinase | we used 2 µg of MBP in an in vitro kinase assay with AtMPK3 and compared the level of phosphorylation
